# Like-named read-outs stand apart in the source and are kept apart here.
# What was measured:
# [1] = biological target: biotinylated avi-tagged TβRII (UniProt P37173); assay: SPR; biotinylated avi-tagged TβRII captured at 50-150 RU on neutravidin-coated CM-5 chip; WT TGM-D3 or TGM-D3 variants injected in 25 mM Hepes, pH 7.4, 150 mM NaCl, 0.05% P20, 100 μl/min; 1:1 fit of duplicate or triplicate injection series
# [2] = biological target: biotinylated avi-tagged TGM-D3 (Heligmosomoides polygyrus); assay: SPR; biotinylated avi-tagged TGM-D3 captured at 50-150 RU on neutravidin-coated CM-5 chip; TβRII variants injected in 25 mM Hepes, pH 7.4, 150 mM NaCl, 0.05% P20, 100 μl/min; 1:1 fit of duplicate or triplicate injection series
# [3] = biological target: biotinylated avi-tagged TβRII (UniProt P37173)
# TβRII ectodomain [4] = biological target: TβRII ectodomain (UniProt P37173); assay: ITC; competition: 150 μM mmTGF-β27M injected into 15 μM TβRII with 0, 6.0 or 12.0 μM TGM-D3; 25 mM sodium phosphate, 50 mM NaCl, pH 6.0, 35 °C; global fit of the three datasets to a 1:1 model with competition
# TβRI ectodomain [5] = biological target: TβRI ectodomain (UniProt P36897); assay: ITC; TGM construct in the syringe (58-150 µM), 7.5 µM TβRI in the cell; 25 mM Hepes, 50 mM NaCl, 0.05% NaN3, pH 7.5, 25 °C; 1:1 model (Nitpic, Sedphat)
# TβRII ectodomain [6] = biological target: TβRII ectodomain (UniProt P37173); assay: ITC; TGM construct titrated into TβRII in the cell; 25 mM sodium phosphate, 50 mM NaCl, pH 6.0, 35 °C; 1:1 model
# [7] = biological target: biotinylated avi-tagged TβRII (UniProt P37173); assay: SPR; BIAcore X100; biotinylated avi-tagged TβRI or TβRII captured on neutravidin-coated CM-5 chip (results say streptavidin) at 50-150 RU; TGM constructs injected as 2-fold dilution series in 25 mM Hepes, pH 7.4, 150 mM NaCl, 0.005% P20, 100 μl/min; 1:1 kinetic fit of a single injection series
# [8] = biological target: biotinylated avi-tagged TβRII (UniProt P37173); assay: SPR; biotinylated avi-tagged TβRII captured at 50-150 RU on neutravidin-coated CM-5 chip; WT TGM-D3 or TGM-D3 variants injected in 25 mM Hepes, pH 7.4, 150 mM NaCl, 0.05% P20, 100 μl/min; 1:1 fit of duplicate or triplicate injection series; remark: listed apart in the source
# TβRI ectodomain [9] = biological target: TβRI ectodomain (UniProt P36897); assay: ITC; TGM construct titrated into TβRI in the cell; 25 mM Hepes, 50 mM NaCl, 0.05% NaN3, pH 7.5, 25 °C; 1:1 model
# [10] = biological target: biotinylated avi-tagged TβRI (UniProt P36897); assay: SPR; BIAcore X100; biotinylated avi-tagged TβRI or TβRII captured on neutravidin-coated CM-5 chip (results say streptavidin) at 50-150 RU; TGM constructs injected as 2-fold dilution series in 25 mM Hepes, pH 7.4, 150 mM NaCl, 0.005% P20, 100 μl/min; 1:1 kinetic fit of a single injection series
# TβRII ectodomain [11] = biological target: TβRII ectodomain (UniProt P37173); assay: ITC; TGM construct in the syringe (300-320 µM), 15 µM TβRII in the cell; 25 mM sodium phosphate, 50 mM NaCl, pH 6.0, 35 °C; 1:1 model (Nitpic, Sedphat)
# TβRI ectodomain [12] = biological target: TβRI ectodomain (UniProt P36897); assay: ITC; TGF-β3(TβRII)2 complex titrated into TβRI; 25 mM Hepes, 50 mM NaCl, 0.05% NaN3, pH 7.5, 30 °C
substance,measurement,setting,value
TGM-D3 Y252A (domain or fragment),fold increase of KD against WT,[1],> 20 fold
TβRII I73A (from UniProt P37173 23-166) (receptor),fold increase of KD against WT,[2],7 fold
TGM-D3 V236A (domain or fragment),fold increase of KD against WT,[1],4 fold
TGM D13 I256A (domain or fragment),"EC50 of signaling, MFB-F11 TGF-β reporter bioassay",[3],4.5 ng/mL
"mmTGF-β27M, engineered TGF-β monomer (from UniProt P61812) (ligand)",Kd,TβRII ectodomain [4],0.035 µM
TGM-D2 (domain or fragment),Kd,TβRI ectodomain [5],1.5 µM
same,stoichiometry N,TβRI ectodomain [5],0.54
TGM D13 Y252A (domain or fragment),"EC50 of signaling, MFB-F11 TGF-β reporter bioassay",[3],7 ng/mL
TGM D13 I238A (domain or fragment),"EC50 of signaling, MFB-F11 TGF-β reporter bioassay",[3],9.7 ng/mL
TGM-D3 (domain or fragment),stoichiometry N,TβRII ectodomain [6],1
same,Kd,[7],0.91 µM
same,koff,[7],0.6 s⁻¹
same,kon,[7],600000 M⁻¹ s⁻¹
TGM-D3 K254A (domain or fragment),fold increase of KD against WT,[8],> 30 fold
same,fold increase of KD against WT,[1],> 20 fold
TβRII E142Q (from UniProt P37173 23-166) (receptor),fold increase of KD against WT,[2],17 fold
TGM-D12 (domain or fragment),stoichiometry N,TβRI ectodomain [5],1.2
full-length TGM (TGF-β mimic) (natural protein),stoichiometry N,TβRI ectodomain [9],1
same,stoichiometry N,TβRII ectodomain [6],1
same,Kd,[10],0.013 µM
same,koff,[10],0.00078 s⁻¹
same,kon,[10],59000 M⁻¹ s⁻¹
same,Kd,[7],0.61 µM
same,koff,[7],0.1 s⁻¹
same,kon,[7],2e+07 M⁻¹ s⁻¹
TGM-D3 I238A (domain or fragment),fold increase of KD against WT,[1],> 20 fold
TGM-FL (natural protein),Kd,TβRI ectodomain [5],0.052 µM
same,stoichiometry N,TβRI ectodomain [5],0.96
same,Kd,TβRII ectodomain [11],0.55 µM
same,stoichiometry N,TβRII ectodomain [11],0.84
TβRII I76A (from UniProt P37173 23-166) (receptor),fold increase of KD against WT,[2],26 fold
"TGM D13 (TGM D1-D3), wild type (domain or fragment)","EC50 of signaling, MFB-F11 TGF-β reporter bioassay",[3],3.9 ng/mL
TGF-β3(TβRII)2 binary complex (from UniProt P37173 23-166),Kd,TβRI ectodomain [12],0.061 µM
same,dH,TβRI ectodomain [12],-4.2 kcal/mol
TGM-D3 F235A (domain or fragment),fold increase of KD against WT,[1],4 fold
TGM-D3 R198A (domain or fragment),fold increase of KD against WT,[8],> 30 fold
same,fold increase of KD against WT,[1],> 20 fold
TβRII S75L (from UniProt P37173 23-166) (receptor),fold increase of KD against WT,[2],200 fold

# — PMC9163516
